Test results reported in the supplement of paper PMC11865577.

Tests used:
Assay in all cases: pull-down binding Z-score (relative to library population); higher = stronger binding
Conditions in all cases: RNA library: Library-2
[1] = test system: TO-N3 (biotin conjugate)
In short: (§1)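 Streptavidin beads with 100 pmol of biotin-conjugated small molecule were incubated for 60 min at 25 °C with 1 μg of heat-folded Cy5- or Cy3-end-labelled RNA library in phosphate/NaCl/KCl buffer. Bound RNA was eluted in hot SDS after three washes and hybridised to a DNA barcode microarray at 55.5 °C for 20 h. Each binding score is a library-referenced Z-score, computed after beads-only subtraction and a trimmed mean of barcoded replicate probes.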

[2] = test system: TO-3-N3 (biotin conjugate)
In short: as §1

[3] = test system: TO-3-N3-2 (biotin conjugate)
In short: as §1

[4] = test system: TO-N3-2 (biotin conjugate)
In short: as §1

GCGCUACUGCAACGAUACCGAUACAAGCCUCACUCCCUUUCGGAUGGCUUAUUGUUGGCGUUGCACUUCUUGCUGUUUUUCAGAGCGC
pull-down binding Z-score [1]: -0.282 | pull-down binding Z-score [2]: -0.679 | pull-down binding Z-score [3]: 0.232 | pull-down binding Z-score [4]: 0.285

GCGCUGCCAGAAACUGGCAAAAGCGC [bulge-AAA]
pull-down binding Z-score [1]: -0.936 | pull-down binding Z-score [2]: -0.765 | pull-down binding Z-score [3]: -0.295 | pull-down binding Z-score [4]: -0.689

GCGCUGCCAGAAACUGGCAAAGCGC [bulge-AA]
pull-down binding Z-score [1]: -0.403 | pull-down binding Z-score [2]: -0.184 | pull-down binding Z-score [3]: -0.00126 | pull-down binding Z-score [4]: -0.0432

GCGCUGCCAGAAACUGGCAAGCGC [bulge-A]
pull-down binding Z-score [1]: -0.493 | pull-down binding Z-score [2]: -0.289 | pull-down binding Z-score [3]: -0.541 | pull-down binding Z-score [4]: -1.12

GCGCUGCCAGAAACUGGCAGCGC [full-UA]
pull-down binding Z-score [1]: -0.599 | pull-down binding Z-score [2]: -0.337 | pull-down binding Z-score [3]: -0.274 | pull-down binding Z-score [4]: -0.943

GCGCUGCCAGAAACUGGCCAGCGC [bulge-C]
pull-down binding Z-score [1]: -0.667 | pull-down binding Z-score [2]: -0.488 | pull-down binding Z-score [3]: -0.512 | pull-down binding Z-score [4]: -0.547

GCGCUGCCAGAAACUGGCCCAGCGC [bulge-CC]
pull-down binding Z-score [1]: -0.282 | pull-down binding Z-score [2]: -0.161 | pull-down binding Z-score [3]: -0.288 | pull-down binding Z-score [4]: 0.352

GCGCUGCCAGAAACUGGCCCCAGCGC [bulge-CCC]
pull-down binding Z-score [1]: -0.283 | pull-down binding Z-score [2]: -0.229 | pull-down binding Z-score [3]: -0.182 | pull-down binding Z-score [4]: 0.6

GCGCUGCCAGAAACUGGCCGCGC [mismatch-UC]
pull-down binding Z-score [1]: -0.905 | pull-down binding Z-score [2]: -0.648 | pull-down binding Z-score [3]: -0.66 | pull-down binding Z-score [4]: -0.896

GCGCUGCCAGAAACUGGCGAGCGC [bulge-G]
pull-down binding Z-score [1]: -0.593 | pull-down binding Z-score [2]: -0.426 | pull-down binding Z-score [3]: -0.354 | pull-down binding Z-score [4]: -0.578

GCGCUGCCAGAAACUGGCGGAGCGC [bulge-GG]
pull-down binding Z-score [1]: -0.873 | pull-down binding Z-score [2]: -0.714 | pull-down binding Z-score [3]: -0.672 | pull-down binding Z-score [4]: -0.22

GCGCUGCCAGAAACUGGCGGCGC [mismatch-UG]
pull-down binding Z-score [1]: 0.624 | pull-down binding Z-score [2]: 0.983 | pull-down binding Z-score [3]: -0.0108 | pull-down binding Z-score [4]: -0.856

GCGCUGCCAGAAACUGGCGGGAGCGC [bulge-GGG]
pull-down binding Z-score [1]: 0.688 | pull-down binding Z-score [2]: 0.781 | pull-down binding Z-score [3]: 0.00655 | pull-down binding Z-score [4]: 0.604

GCGCUGCCAGAAACUGGCUAAGCGC [bulge-UA]
pull-down binding Z-score [1]: -0.911 | pull-down binding Z-score [2]: -0.669 | pull-down binding Z-score [3]: -0.353 | pull-down binding Z-score [4]: -0.61

GCGCUGCCAGAAACUGGCUAGCGC [bulge-U]
pull-down binding Z-score [1]: -0.0999 | pull-down binding Z-score [2]: 0.183 | pull-down binding Z-score [3]: -0.328 | pull-down binding Z-score [4]: -0.75

GCGCUGCCAGAAACUGGCUCAGCGC [bulge-UC]
pull-down binding Z-score [1]: -0.584 | pull-down binding Z-score [2]: -0.319 | pull-down binding Z-score [3]: -0.576 | pull-down binding Z-score [4]: -0.361

GCGCUGCCAGAAACUGGCUGAGCGC [bulge-UG]
pull-down binding Z-score [1]: 0.392 | pull-down binding Z-score [2]: 0.553 | pull-down binding Z-score [3]: -0.0129 | pull-down binding Z-score [4]: -0.14

GCGCUGCCAGAAACUGGCUGCGC [mismatch-UU]
pull-down binding Z-score [1]: -0.231 | pull-down binding Z-score [2]: 0.141 | pull-down binding Z-score [3]: -0.405 | pull-down binding Z-score [4]: -0.689

GCGCUGCCAGAAACUGGCUUAAGCGC [bulge-UUA]
pull-down binding Z-score [1]: -0.128 | pull-down binding Z-score [2]: 0.176 | pull-down binding Z-score [3]: -0.252 | pull-down binding Z-score [4]: -0.601

GCGCUGCCAGAAACUGGCUUAGCGC [bulge-UU]
pull-down binding Z-score [1]: 0.691 | pull-down binding Z-score [2]: 0.63 | pull-down binding Z-score [3]: -0.0172 | pull-down binding Z-score [4]: 0.338

GCGCUGCCAGAAACUGGCUUCAGCGC [bulge-UUC]
pull-down binding Z-score [1]: -0.796 | pull-down binding Z-score [2]: -0.611 | pull-down binding Z-score [3]: -0.243 | pull-down binding Z-score [4]: -0.304

GCGCUGCCAGAAACUGGCUUGAGCGC [bulge-UUG]
pull-down binding Z-score [1]: 0.932 | pull-down binding Z-score [2]: 1.04 | pull-down binding Z-score [3]: 0.543 | pull-down binding Z-score [4]: 0.434

GCGCUGCCAGAAACUGGCUUUAGCGC [bulge-UUU]
pull-down binding Z-score [1]: -0.24 | pull-down binding Z-score [2]: -0.00635 | pull-down binding Z-score [3]: -0.158 | pull-down binding Z-score [4]: -0.562

GCGCUUCAGCGUUCUUCGGAAUGUCGCGC
pull-down binding Z-score [1]: -0.787 | pull-down binding Z-score [2]: -0.429 | pull-down binding Z-score [3]: -0.453 | pull-down binding Z-score [4]: -0.654

GCGCUUUAGGUCUACACGGGCCGAAGCUAACGCGUUAAGCGC [3-way model-5_mrRNA]
pull-down binding Z-score [1]: 0.0607 | pull-down binding Z-score [2]: 0.146 | pull-down binding Z-score [3]: 0.0632 | pull-down binding Z-score [4]: 0.245

GCUAAAGAUACUACUGAAGCCUUUGAAAAAAUGGUUUCACUACUUUCUGUUUUGC [SHAPE_invitro_SARS-CoV-2_Motif_217]
pull-down binding Z-score [1]: 0.166 | pull-down binding Z-score [2]: 0.0938 | pull-down binding Z-score [3]: 0.0624 | pull-down binding Z-score [4]: -0.245

GCUAAAUUGUUACAUAAACCUAUUGUUUGGCAUGUUAACAAUGC [SHAPE_invitro_SARS-CoV-2_Motif_124]
pull-down binding Z-score [1]: -0.96 | pull-down binding Z-score [2]: -0.783 | pull-down binding Z-score [3]: -0.265 | pull-down binding Z-score [4]: -1.24

GCUAAAUUGUUACAUAAACCUAUUGUUUGGCAUGUUAACAAUGCAACUAAUAAAGCCACGUAUAAACCAAAUACCUGGUGUAUACGUUGUCUUUGGAGC
pull-down binding Z-score [1]: -1.4 | pull-down binding Z-score [2]: -1.1 | pull-down binding Z-score [3]: -0.0887 | pull-down binding Z-score [4]: -1.05

GCUAACAAACAUGCUGAUUUUGACACAUGGUUUAGCCAGCGUGGUGGUAGU
pull-down binding Z-score [1]: 0.157 | pull-down binding Z-score [2]: -0.205 | pull-down binding Z-score [3]: 0.101 | pull-down binding Z-score [4]: 0.519

GCUAGAAAAUCAGC [SHAPE_invivo_SARS-CoV-2_Motif_531]
pull-down binding Z-score [1]: -0.0963 | pull-down binding Z-score [2]: -0.186 | pull-down binding Z-score [3]: 0.246 | pull-down binding Z-score [4]: -0.164

GCUAGCUCUUGGAGGUUCCGUGGCUAUAAAGAUAACAGAACAUUCUUGGAAUGCUGAUCUUUAUAAGCUCAUGGGACACUUCGCAUGGUGGACAGC
pull-down binding Z-score [1]: 0.974 | pull-down binding Z-score [2]: 0.837 | pull-down binding Z-score [3]: 0.121 | pull-down binding Z-score [4]: 0.936

GCUAGUCUUAAUGGAGUCACAUUAAUUGGAGAAGC
pull-down binding Z-score [1]: 0.474 | pull-down binding Z-score [2]: 0.378 | pull-down binding Z-score [3]: 0.112 | pull-down binding Z-score [4]: 0.337

GCUAGUGGGGGACAACCAAUCACUAAUUGUGUUAAGAUGUUGUGUACACACACUGGU
pull-down binding Z-score [1]: 1.03 | pull-down binding Z-score [2]: 0.789 | pull-down binding Z-score [3]: 0.649 | pull-down binding Z-score [4]: 0.564

GCUAUAUGAUGC [IAV_invivo_PA_3_Motif_14+IAV_invivo_PA_3_Motif_14]
pull-down binding Z-score [1]: -0.106 | pull-down binding Z-score [2]: -0.0014 | pull-down binding Z-score [3]: -0.212 | pull-down binding Z-score [4]: -0.634

GCUAUCUAACCUUAACUUGCCUGGUUGUGAUGGU [SHAPE_invivo_SARS-CoV-2_Motif_361]
pull-down binding Z-score [1]: 0.716 | pull-down binding Z-score [2]: 0.68 | pull-down binding Z-score [3]: 0.311 | pull-down binding Z-score [4]: 0.466
